Results on 7 molecules are retold here after patent publication US6623741.

In experiment [1] the target is T1, MF-IV (MF5.1): E. coli maltose binding protein fused to RSV F protein residues 142-302 (E. coli; respiratory syncytial virus (strain A2)), P03420.
T1 chain: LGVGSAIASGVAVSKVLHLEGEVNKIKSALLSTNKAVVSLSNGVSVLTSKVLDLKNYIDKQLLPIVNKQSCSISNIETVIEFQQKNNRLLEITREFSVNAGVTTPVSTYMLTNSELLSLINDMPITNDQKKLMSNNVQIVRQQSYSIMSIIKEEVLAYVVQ

The target in experiment [2] is T1, MF-IV (MF5.1): E. coli maltose binding …. The experiment can be described thus: competitive binding assay (B50) on the MF5.1 fusion protein; reference T112.
Experiment [3] concerns the target T1581 (respiratory syncytial virus (strain A2)). Put plainly: sedimentation equilibrium, 35 µM peptide, single ideal species fit (self-association); monomer 5007.
Experiment [4] has the same target. The experiment can be described thus: sedimentation equilibrium, 35 µM peptide (self-association).
Experiment [5] has as its target T1584 (respiratory syncytial virus (strain A2)). Put plainly: sedimentation equilibrium, 35 µM peptide, single ideal species fit (self-association); monomer 5506.
For experiment [6] the target is unchanged. Put plainly: sedimentation equilibrium, 35 µM peptide (self-association).
Experiment [7] has as its target T1582 (respiratory syncytial virus (strain A2)). Put plainly: sedimentation equilibrium, 35 µM peptide, single ideal species fit (self-association); monomer 4897.
Experiment [8] has the same target. The experiment can be described thus: sedimentation equilibrium, 35 µM peptide (self-association).
Experiment [9] deals with T1623 (respiratory syncytial virus (strain A2)). Put plainly: sedimentation equilibrium, 35 µM peptide, single ideal species fit (self-association); monomer 5750.
The target is the same in experiment [10]. The experiment can be described thus: sedimentation equilibrium, 35 µM peptide (self-association).
Experiment [11] addresses T1772 (respiratory syncytial virus (strain A2)). Put plainly: sedimentation equilibrium (self-association).
The target is the same in experiment [12]. Put plainly: sedimentation equilibrium, value at 25 µM, single ideal species fit (self-association); monomer 5393.
For experiment [13] the target is unchanged.
For experiment [14] the target is unchanged. The source holds these as a separate data set.
For experiment [15] the target is unchanged. The source holds these as a separate data set.
In experiment [16] the target is T112 (respiratory syncytial virus (strain A2)).
The target of experiment [17] is T1772 (respiratory syncytial virus (strain A2)). The source holds these as a separate data set.
Experiment [18] has the same target. The source holds these as a separate data set.

Where “and” joins values, the source holds several entries; their conditions need not be identical. Equal entries are not always repeated. Where two headings read alike, the source gives them in different places.

On to DEFDASISQVNEKINQSLAFIRKSDELL (modifications not checked) [T67], for which the binding affinity in experiment [1] was found to be 5 nM. In experiment [2], this molecule yielded a fold lower binding affinity than T112 of 5 fold.
In the case of VLHLEGEVNKIKSALLSTNKAVVSLSNGVSVLTSKVLDLKNYIDKQ (modifications not checked) [T1581], the weight-averaged molecular weight in experiment [3] stood at 9120 g/mol. In addition, the N-mer (weight-averaged molecular weight / monomer molecular weight) in experiment [4] is 1.8.

B1: T1584 (peptide)
peptide: AVSKVLHLEGEVNKIKSALLSTNKAVVSLSNGVSVLTSKVLDLKNYIDKQL
modifications: not checked
B1 displayed a weight-averaged molecular weight in experiment [5] of 11700 g/mol. In experiment [6], this molecule yielded a N-mer (weight-averaged molecular weight / monomer molecular weight) of 2.1.
Consider VLHLEGEVNKIKSALLSTNKAVVSLSNGVSVLTSKVLDLKNYIDK (modifications not checked) [T1582], for which, in experiment [7], the weight-averaged molecular weight worked out at 7520 g/mol. The molecule also returned a N-mer (weight-averaged molecular weight / monomer molecular weight) in experiment [8] of 1.5.

B2: T1623 (peptide)
peptide: SGVAVSKVLHLEGEVNKIKSALLSTNKAVVSLSNGVSVLTSKVLDLKNYIDKQL
modifications: not checked
Take B2: the weight-averaged molecular weight in [9] was 12900 g/mol. The same molecule gave a N-mer (weight-averaged molecular weight / monomer molecular weight) in experiment [10] of 2.2.
As to AVSKVLHLEGEVNKIKSALLSTNKAVVSLSNGVSVLTSKVLDLKNYIDKQ (modifications not checked) [T1772], in experiment [11], the N-mer (weight-averaged molecular weight / monomer molecular weight) is 2.4. Besides, the weight-averaged molecular weight in experiment [12] worked out at 12900 g/mol; in experiment [13], 12900 Da.
Turning to VFPSDEFDASISQVNEKINQSLAFIRKSDELLHNV (modifications not checked) [T112], the weight-averaged molecular weight of the mixture is 21100 Da in experiment [14]; 15300 Da and 22000 Da and 17300 Da in experiment [17]. Further, the helicity of the peptide mixture in experiment [15] was 86%. In experiment [16], this molecule came in with a weight-averaged molecular weight of 3980 Da. Further, in experiment [18], the melting temperature (Tm) of the peptide mixture worked out at 87 ° C.
